Patent US20230056992A1 (AGGAMIN, published 2023)

T1: purified recombinant human sEng (human Endoglin ectodomain residues 26 to 586 with C-terminal 6x His tag, … (human, UniProt P17813 26-586))
T1 construct: range 26-586; also called spiked sEng; recombinant human sEng (amino acid residues 26-586)
T1 sequence: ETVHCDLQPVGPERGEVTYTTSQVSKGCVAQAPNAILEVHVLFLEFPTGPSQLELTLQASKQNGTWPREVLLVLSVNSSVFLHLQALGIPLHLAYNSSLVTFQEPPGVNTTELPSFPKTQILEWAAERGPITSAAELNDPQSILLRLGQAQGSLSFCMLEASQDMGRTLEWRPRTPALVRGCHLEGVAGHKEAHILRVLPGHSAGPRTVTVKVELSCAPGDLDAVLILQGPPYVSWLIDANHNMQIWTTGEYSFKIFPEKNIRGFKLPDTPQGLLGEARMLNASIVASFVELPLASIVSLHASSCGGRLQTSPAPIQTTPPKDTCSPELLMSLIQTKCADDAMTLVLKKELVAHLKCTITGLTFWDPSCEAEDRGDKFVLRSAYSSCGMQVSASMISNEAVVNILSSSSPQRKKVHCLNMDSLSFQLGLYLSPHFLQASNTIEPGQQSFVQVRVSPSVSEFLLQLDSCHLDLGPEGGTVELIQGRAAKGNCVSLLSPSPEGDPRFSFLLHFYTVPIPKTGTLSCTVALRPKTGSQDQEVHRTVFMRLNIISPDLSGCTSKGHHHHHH

T2: endogenous sEng in pre-eclamptic patient serum (human, UniProt P17813 26-586)
T2 construct: Native protein in patient serum; the isoform or cleavage product is not defined; also called circulating sEng
T2 sequence (looked up): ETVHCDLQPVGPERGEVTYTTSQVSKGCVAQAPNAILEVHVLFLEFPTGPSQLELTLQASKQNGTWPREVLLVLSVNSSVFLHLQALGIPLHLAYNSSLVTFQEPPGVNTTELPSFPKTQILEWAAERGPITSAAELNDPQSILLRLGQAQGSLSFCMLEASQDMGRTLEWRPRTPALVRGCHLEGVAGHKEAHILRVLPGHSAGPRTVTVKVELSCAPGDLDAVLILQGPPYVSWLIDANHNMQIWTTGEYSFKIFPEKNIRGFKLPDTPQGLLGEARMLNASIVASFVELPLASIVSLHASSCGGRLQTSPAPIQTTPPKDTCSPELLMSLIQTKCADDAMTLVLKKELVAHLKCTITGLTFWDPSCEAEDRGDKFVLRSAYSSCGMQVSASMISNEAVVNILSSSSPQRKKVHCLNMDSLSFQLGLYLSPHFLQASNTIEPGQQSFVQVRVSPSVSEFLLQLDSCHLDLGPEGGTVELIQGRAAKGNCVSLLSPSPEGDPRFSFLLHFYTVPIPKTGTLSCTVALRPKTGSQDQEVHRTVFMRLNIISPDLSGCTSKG

B1: chimeric anti-sEng antibody cENG10 (antibody, human IgG1, kappa, N297Q, V domains shown)
VH: EVQLEQSGPEVVKPGTSVKISCKTSGYTITEHTLHWIKQNQGKSLEWIGGINFDNGGTTYRQKFKDKATLTVDKSSSTAFMELRSLTSDDSAVYFCARRAYYYGSAFDYWGQGTTLTVSS
VL: ENVLTQSPAIMSASLGEKVTMTCRASSSVNYVYWYQQKSDASPKLWIYYTSNLAPGVPARFSGSGSGNSYSLTISSMEGEDAATYYCQQFISFPYTFGGGTKLEIKR
notes: Chimeric mouse/human IgG1 kappa with N300Q; also called anti-human sEng MAb; cENG10 column
B2: chimeric anti-sFlt-1 antibody AG10B (antibody, V domains shown)
VH: QVQLQQSGPELVKPGASVKMSCKASGYTFTDYVISWVKQRTGQGLEWIGEIYPGSGSIYYNEKFKGKATLTADTSSNTAYMQLSSLTFEDSAVIFCARGHYYGYFDYWGQGTTLTVSS
VL: DIVMTQSHKFMSTSVGDRVSITCKASQDVTITVAWYQQKPGQSPKLLIYSASYRYTGVPDRFTGSGSGTDFTFTISSVQAEDLAVYYCQQHYTTPWTFGGGTKLEIKR
notes: Chimeric mouse/human IgG1 kappa with N298Q; It served as the negative control for sEng depletion; also called AGB10; AB10B

How the values were obtained:
[1] = biological target: T3, endogenous sFlt-1 in pre-eclamptic patient serum (human, UniProt P17948-2 27-687, limits assumed); experiment: 0.1 mL column of antibody-conjugated beads, pre-eclamptic patient serum
T3 construct: Native protein in patient serum; the isoform is not defined; also called circulating sFlt-1
T3 sequence (P17948 other isoform, or with tags, fused parts or gaps limits assumed): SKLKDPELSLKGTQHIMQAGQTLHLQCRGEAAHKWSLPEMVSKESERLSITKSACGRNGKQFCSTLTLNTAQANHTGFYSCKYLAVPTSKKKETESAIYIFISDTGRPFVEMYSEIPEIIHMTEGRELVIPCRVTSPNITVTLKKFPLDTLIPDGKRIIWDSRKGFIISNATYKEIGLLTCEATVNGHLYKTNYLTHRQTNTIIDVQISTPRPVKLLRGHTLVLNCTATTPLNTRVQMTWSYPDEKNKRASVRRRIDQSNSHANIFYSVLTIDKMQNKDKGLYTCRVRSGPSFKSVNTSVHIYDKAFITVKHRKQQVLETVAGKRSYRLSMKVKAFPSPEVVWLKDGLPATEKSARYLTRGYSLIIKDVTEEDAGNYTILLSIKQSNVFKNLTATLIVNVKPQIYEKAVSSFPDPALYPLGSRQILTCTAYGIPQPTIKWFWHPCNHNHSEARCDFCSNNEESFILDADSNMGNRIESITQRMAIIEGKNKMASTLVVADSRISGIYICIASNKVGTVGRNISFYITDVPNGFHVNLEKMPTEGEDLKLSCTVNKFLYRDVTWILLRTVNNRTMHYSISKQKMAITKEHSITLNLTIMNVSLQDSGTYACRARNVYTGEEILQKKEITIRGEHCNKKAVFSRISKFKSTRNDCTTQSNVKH
Method: (§1) Circulating sEng and sFlt-1 proteins are elevated in pre-eclampsia patients and are postulated to be major causal factors of disease onset and progression. To test whether a cENG10/AG10B dual device is capable of removing these endogenous sEng and sFlt-1 proteins from patient serum, micro-scale 0.1 mL columns conjugated with cENG10, AG10B, or both cENG10 and AG10B MAbs were prepared. cENG10 column specifically removed>90% of endogenous sEng in pre-eclamptic serum but not endogenous sFlt-1, and the AG10B column specifically removed>90% of endogenous sFlt-1 in pre-eclamptic serum but not endogenous sEng. The cENG10/AG10B dual device column, in which a mixture of the two antibodies at 1 mg each per mL beads were conjugated simultaneously, removed>90% of both sEng and sFlt-1 proteins.

[2] = biological target: T1, purified recombinant human sEng (human …); experiment: 1 mL column, 0.2 mg MAb per mL Sepharose beads, flow rates 0.25-2.00 mL/min; input vs flow-through
Method: A 1-ml cENG10 device column was evaluated for depletion of spiked sEng in horse serum. For each column, 0.2 mg cENG10 or AG10B MAb was covalently conjugated to 1 mL of CNBr-activated Sepharose 4FF beads for 0.2 mg per mL beads ratio. For each test, 10 mL of serum containing 60 ng/mL of sEng, median concentration in severe pre-eclampsia patients, was applied for one cycle over the column. The first 1 ml containing pre-equilibration buffer was not collected in the flow-through (FT) fraction and the last 1 mL of input remaining in column was chased with 1 CV of PBS buffer and pooled into the FT fraction. The % sEng depletion was calculated by dividing the difference in concentration between input and FT by input concentration: […]

[3] = biological target: T2, endogenous sEng in pre-eclamptic …; experiment: 0.1 mL column of antibody-conjugated beads, pre-eclamptic patient serum
Method: as §1

| Binder | binding result [1] | binding result [2] | binding result [3] |
| --- | --- | --- | --- |
| B1 | no binding | – | – |
| B2 | – | no binding (tested: 60 ng/mL sEng in 10 mL horse serum) | no binding |
